Target: EntF (E. coli enterobactin synthetase component), apo form, P11454
Sequence (P11454 whole entry): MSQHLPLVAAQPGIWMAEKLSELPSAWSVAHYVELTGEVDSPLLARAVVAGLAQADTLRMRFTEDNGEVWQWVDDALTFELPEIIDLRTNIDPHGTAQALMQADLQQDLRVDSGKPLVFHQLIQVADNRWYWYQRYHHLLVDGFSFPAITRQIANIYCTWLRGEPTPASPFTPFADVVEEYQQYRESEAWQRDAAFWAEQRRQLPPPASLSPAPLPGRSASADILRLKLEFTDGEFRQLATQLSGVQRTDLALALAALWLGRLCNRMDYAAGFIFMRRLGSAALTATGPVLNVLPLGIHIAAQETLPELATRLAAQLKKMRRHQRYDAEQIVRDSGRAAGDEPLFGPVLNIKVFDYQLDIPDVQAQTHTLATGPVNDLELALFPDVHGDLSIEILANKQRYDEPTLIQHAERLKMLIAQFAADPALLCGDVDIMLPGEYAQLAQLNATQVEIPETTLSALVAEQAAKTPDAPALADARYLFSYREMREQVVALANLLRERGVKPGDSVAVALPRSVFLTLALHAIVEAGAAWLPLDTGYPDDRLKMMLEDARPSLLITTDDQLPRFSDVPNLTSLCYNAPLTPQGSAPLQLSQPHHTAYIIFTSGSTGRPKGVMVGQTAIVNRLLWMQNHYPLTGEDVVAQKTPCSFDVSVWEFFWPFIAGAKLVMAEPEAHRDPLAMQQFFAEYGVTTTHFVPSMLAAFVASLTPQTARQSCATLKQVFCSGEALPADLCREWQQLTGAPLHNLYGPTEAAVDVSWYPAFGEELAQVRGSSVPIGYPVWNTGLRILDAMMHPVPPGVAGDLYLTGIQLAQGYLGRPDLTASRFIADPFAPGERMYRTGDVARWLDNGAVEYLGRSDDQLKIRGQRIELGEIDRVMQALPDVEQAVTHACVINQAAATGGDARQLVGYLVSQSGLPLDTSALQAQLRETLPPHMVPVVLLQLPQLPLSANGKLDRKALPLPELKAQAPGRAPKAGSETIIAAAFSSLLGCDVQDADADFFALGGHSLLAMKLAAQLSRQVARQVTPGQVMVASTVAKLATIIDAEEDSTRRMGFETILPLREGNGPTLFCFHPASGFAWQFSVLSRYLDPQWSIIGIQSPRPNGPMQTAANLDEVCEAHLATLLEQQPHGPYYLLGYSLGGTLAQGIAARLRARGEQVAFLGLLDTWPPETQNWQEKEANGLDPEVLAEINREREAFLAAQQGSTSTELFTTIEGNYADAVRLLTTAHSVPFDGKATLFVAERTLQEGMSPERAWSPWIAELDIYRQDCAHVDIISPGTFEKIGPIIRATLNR

B1: o195 (E. coli ORF of unknown function), recombinant from pET28b-o195 (protein)
chain: MYRIVLGKVSTLSAAPLPPGLREQAPQGPRRERWLAGRALLSHTLSPLPEIIYGEQGKPAFAPEMPLWFNLSHSGDDIALLLSDEGEVGCDIEVIRPRANWRWLANAVFSLGEHAEMDAVHPDQQLEMFWRIWTRKEAIVKQRGGSAWQIVSVDSTYHSSLSVSHCQLENLSLAICTPTPFTLTADSVQWIDSVN
  time course of incorporation of radiolabel into EntF: EntF undergoes almost no modification in the presence of 15-fold higher concentrations of ACPS and o195

— patent US7192735
